# According to patent US20120301394A1 (published 2012):
# Where a chain is given by its changes, count along the chain named.
# T1: Recombinant human MMR (R&D systems) (human, UniProt P22897 19-1383)
# T1 construct: Bought protein (R&D Systems #2534) coated on ELISA plates; also called hMMR; MRC1
# T1 sequence: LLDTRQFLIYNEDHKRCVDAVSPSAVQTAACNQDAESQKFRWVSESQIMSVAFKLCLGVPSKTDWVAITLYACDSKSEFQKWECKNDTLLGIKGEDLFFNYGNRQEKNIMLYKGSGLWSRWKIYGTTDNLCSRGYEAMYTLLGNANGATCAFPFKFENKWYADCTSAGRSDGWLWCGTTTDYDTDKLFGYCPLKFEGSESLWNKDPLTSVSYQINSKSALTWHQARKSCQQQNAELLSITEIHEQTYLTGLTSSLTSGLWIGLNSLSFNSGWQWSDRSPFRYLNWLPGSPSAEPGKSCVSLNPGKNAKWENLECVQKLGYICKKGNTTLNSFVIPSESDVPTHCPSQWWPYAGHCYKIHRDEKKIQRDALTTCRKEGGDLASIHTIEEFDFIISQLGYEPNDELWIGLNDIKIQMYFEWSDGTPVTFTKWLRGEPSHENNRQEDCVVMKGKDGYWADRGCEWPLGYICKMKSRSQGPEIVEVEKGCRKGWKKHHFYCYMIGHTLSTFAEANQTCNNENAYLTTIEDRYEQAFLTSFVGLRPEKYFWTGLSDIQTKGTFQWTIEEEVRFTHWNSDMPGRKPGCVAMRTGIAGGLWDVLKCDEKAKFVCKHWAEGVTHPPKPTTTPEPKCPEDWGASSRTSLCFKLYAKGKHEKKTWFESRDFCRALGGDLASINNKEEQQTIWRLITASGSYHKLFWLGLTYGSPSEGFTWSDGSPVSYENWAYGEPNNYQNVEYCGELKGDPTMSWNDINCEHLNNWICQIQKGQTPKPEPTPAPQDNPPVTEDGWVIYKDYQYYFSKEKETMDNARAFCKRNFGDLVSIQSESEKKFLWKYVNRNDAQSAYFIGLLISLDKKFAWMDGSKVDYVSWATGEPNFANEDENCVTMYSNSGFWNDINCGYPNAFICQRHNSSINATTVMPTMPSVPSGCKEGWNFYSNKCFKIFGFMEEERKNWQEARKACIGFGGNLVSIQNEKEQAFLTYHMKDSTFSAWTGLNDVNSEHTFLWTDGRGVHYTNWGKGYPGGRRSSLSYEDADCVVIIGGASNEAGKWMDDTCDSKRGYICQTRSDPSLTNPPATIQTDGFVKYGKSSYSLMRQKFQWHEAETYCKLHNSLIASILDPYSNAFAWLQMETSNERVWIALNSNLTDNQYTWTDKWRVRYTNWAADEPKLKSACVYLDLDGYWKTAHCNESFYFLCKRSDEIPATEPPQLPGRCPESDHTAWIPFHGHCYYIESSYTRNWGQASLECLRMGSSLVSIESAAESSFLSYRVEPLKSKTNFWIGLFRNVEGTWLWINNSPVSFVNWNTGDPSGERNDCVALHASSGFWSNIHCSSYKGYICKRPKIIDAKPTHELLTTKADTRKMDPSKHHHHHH
# T2: Recombinant mouse MMR (R&D systems) (mouse, UniProt Q61830 20-1388)
# T2 construct: Bought recombinant extracellular portion of mouse MMR with a C-terminal His tag; It was immobilized on the CM5 chip for SPR and coated on plates for PE-ELISA; The SPR methods say only 'MMR'; also called mMMR; recombinant MMR
# T2 sequence: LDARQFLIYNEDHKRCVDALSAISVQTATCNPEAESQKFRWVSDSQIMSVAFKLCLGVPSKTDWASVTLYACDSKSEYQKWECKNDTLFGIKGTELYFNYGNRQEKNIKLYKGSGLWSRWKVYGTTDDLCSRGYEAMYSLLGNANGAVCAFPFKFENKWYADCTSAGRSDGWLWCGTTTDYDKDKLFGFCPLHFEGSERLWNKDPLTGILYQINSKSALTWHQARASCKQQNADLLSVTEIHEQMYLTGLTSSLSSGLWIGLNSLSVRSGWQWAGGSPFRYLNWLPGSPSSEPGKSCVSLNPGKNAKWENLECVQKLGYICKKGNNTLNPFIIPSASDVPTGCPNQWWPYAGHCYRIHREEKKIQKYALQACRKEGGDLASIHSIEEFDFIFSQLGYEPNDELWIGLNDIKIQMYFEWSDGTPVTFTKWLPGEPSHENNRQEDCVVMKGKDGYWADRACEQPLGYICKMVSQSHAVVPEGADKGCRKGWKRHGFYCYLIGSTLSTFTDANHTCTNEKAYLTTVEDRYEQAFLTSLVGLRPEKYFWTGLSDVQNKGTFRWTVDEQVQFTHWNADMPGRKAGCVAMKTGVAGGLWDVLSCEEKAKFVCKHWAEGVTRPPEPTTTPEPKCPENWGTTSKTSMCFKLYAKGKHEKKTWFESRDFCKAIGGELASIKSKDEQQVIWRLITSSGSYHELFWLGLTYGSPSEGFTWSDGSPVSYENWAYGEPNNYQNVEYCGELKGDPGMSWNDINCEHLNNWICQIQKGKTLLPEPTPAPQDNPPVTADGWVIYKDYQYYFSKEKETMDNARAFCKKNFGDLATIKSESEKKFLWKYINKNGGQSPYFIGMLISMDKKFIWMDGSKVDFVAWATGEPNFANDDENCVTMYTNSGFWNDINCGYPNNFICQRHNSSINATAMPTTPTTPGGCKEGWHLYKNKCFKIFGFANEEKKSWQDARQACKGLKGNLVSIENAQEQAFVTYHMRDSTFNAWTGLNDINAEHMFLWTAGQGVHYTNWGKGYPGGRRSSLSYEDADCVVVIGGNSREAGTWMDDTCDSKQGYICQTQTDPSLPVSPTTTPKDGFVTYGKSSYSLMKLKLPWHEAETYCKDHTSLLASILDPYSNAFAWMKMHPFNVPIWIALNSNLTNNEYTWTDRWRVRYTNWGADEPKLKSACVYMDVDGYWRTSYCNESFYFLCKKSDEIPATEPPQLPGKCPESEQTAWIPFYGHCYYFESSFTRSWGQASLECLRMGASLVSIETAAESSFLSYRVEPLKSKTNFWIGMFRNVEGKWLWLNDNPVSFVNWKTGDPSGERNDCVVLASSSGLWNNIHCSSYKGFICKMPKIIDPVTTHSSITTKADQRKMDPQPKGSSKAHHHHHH
# B1: NbhmMMRm6.71 (VHH)
# VHH: QVQLQESGGGLVQAGGSLRLSCAASGGTFDDSVIGWFRQAPGKEREGVSCISSNDGTTHYASPVKGRFTISSDNAKNTVYLQMNSLKPEDTAVYYCAAETPSIGSPCTSASYDYWGQGTQVTVSS
# notes: Tested as a periplasmic extract in PE-ELISA
# B2: NbhmMMRm15.49 (VHH)
# VHH: QVQLQESGGGLVQAGGSLRLSCAASGSTFSINNMGWYRQAPGKQRELVAGITGGNTHYADSVKGRFTISRDNAKNTMYLQMNSLKPEDTAVYYCNANWGAYWGQGTQVTVSS
# notes: as for B1
# B3: NbhmMMRm3.49 (VHH)
# VHH: QVQLQESGGGLVQPGGSLRLSCAASGFSLDYYAIGWFRQAPGKEREGISCISYKGGSTTYADSVKGRFTISKDNAKNTAYLQMNSLKPEDTGIYSCAAGFVCYNYDYWGQGTQVTVSS
# notes: as for B1
# B4: NbhmMMRm10.79 (VHH)
# VHH: QVQLQESGGGLVQPGGSLKLSCAASGSIFSIKTMGWYRQAPGKQRELVAAVSSGGSTNYADSVKGRFTISRDNAKNAVYLQMNSLKPEDTAVYYCNADGVVAWDQPYDNYWGQGTQVTVSS
# notes: as for B1
# B5: NbhmMMRm17.72 (VHH)
# VHH: QVQLQESGGGLVQPGGSLRLSCAASGSIVSINAMGWYRQAPGKQRELVALVTGSGRTNLADSVKGRFTISRDNAKNTVYLQMNSLKPEDTAVYYCNVLVIGPLEGYDYWGQGTQVTVSS
# notes: as for B1
# B6: NbhmMMRm20.52 (VHH)
# VHH: QVQLQESGGGLVQAGGSLRLSCAASGRIFSAYAMGWFRQAPGKEREFVAAISRSGDSTDYADSVKGRFTISRDSAKNMVYLQMNSLKPEDTALYHCAARTVSAPPSAAWGYGYWGQGTQVTVSS
# notes: as for B1
# B7: NbhmMMRm19.52 (VHH)
# VHH: QVQLQESGGGLVQAGGSLRLSCLASGDTFSNYVMAWFRQAPGKEREIVAAIRLSGARYVPDSVKGRFTISRDNAKNAMYLQMTSLKPEDTARYYCAAGHTWGQYAYWGQGTQVTVSS
# notes: as for B1
# B8: NbhmMMRm22.84 (VHH)
# VHH: QVQLQESGGGLVQPGGSLRLSCAASGRTFSNYVNYAMGWFRQFPGKEREFVASISWSSVTTYYADSVKGRFTISRDNAKNTVYLQMNSLKPEDTAVYYCAAHLAQYSDYAYRDPHQFGAWGQGTQVTVSS
# notes: as for B1
# B9: NbhmMMRm24.31 (VHH)
# VHH: QVQLQESGGGLVQPGGSLRLSCTATGFTLKNHHIGWLRQAPGKEREGVASINSSGGSTNYADSVQGRFTISRDNAKNTVFLQMNSLKSEDTAVYYCARLRRYYGLNLDPGSYDYWGQGTQVTVSS
# notes: as for B1
# B10: NbhmMMRm14.4 (VHH)
# VHH: QVQLQESGGGLVQAGDSLRLSCAASGRTFSINYMGWYRQAPGKQRELVAAITSGSGSTNYADSVKGRFTISRDNAKNTMYLQMNSLKPEDTAVYYCNADMDSSLSGGYVDVWGQGTQVTVSS
# notes: as for B1
# B11: NbhmMMRm14.93 (VHH)
# VHH: B10 VHH with N77K
# notes: as for B1
# B12: NbhMMRm3.1 (VHH)
# VHH: B3 VHH with S28T, S85N, S95Y, Q110P
# notes: as for B1
# B13: NbhMMRm10.19 (VHH)
# VHH: B4 VHH with V51I, S52T, A77T
# notes: as for B1
# B14: NbhMMRm1.33 (VHH)
# VHH: QVQLQESGGGLVQPGGSLRLSCAASGFTLDNYTVAWFRQAPGKEREGVSCISSSGGSTNYADSVKGRFTISRDNSKKSVYLQMNSLKPEDTAIYTCAAERAPPYYSGYYFFDSTCVAASYDYWGQGTQVTVSS
# notes: as for B1
# B15: NbhMMRm12.6 (VHH)
# VHH: QVQLQESGGGLVQPGGSLRLSCVVSGSFLSINHMGWYRQVSGEQRELVAAITSGGSTNYADSVKGRFTISRDSAKNTVYLQMNSLKPEDTAVYYCNADALTMLPPFDFWGQGTQVTVSS
# notes: as for B1
# B16: NbhMMRm5.38 (VHH)
# VHH: QVQLQESGGGLVQAGGSLRLSCAASGFTDDDYDIGWFRQAPGKEREGVSCISSSDGSTYYADSVKGRFTISSDNAKNTVYLQMNSLKPEDTAVYYCAADFFRWDSGSYYVRGCRHATYDYWGQGTQVTVSS
# notes: as for B1
# B17: NbhMMRm2.15 (VHH)
# VHH: QVQLQESGGGLVQPGESLRLSCKLSGFTLDYYDIGWFRQAPGKEREGVSCISSIGGSANYADSVKGRFTISRDNVKNTVYLQMNSLKPEDTAIYYCAAEAQTPYNDGDCTRASYDYWGQGIQVTVSS
# notes: as for B1
# Biological target: T1, Recombinant human MMR (R&D systems)
# Assay: PE-ELISA, periplasmic extract on coated human MMR
row,binding result,Binder
1,binds,B1
2,binds,B2
3,binds,B3
4,binds,B4
5,binds,B5
6,binds,B6
7,binds,B7
8,binds,B8
9,binds,B9
10,binds,B10
11,binds,B11

# Biological target: T1, Recombinant human MMR (R&D systems)
# Assay: PE-ELISA, periplasmic extract on coated human MMR, OD405 at least 3x over milk-blocking proteins
row,binding result,Binder
1,binds,B12
2,binds,B13
3,binds,B14
4,binds,B15
5,binds,B16
6,binds,B17

# Biological target: T2, Recombinant mouse MMR (R&D systems)
# Assay: PE-ELISA, periplasmic extract on coated mouse MMR
row,binding result,Binder
1,binds,B1
2,binds,B2
3,binds,B3
4,binds,B4
5,binds,B5
6,binds,B6
7,binds,B7
8,binds,B8
9,binds,B9
10,binds,B10
11,binds,B11
